Kd, koff and kon data for 1 molecule are collected here from publication PMC11848091 (Heliyon, 2025).

Holding throughout (test): SPR
A general note: In SPR one partner is held on a chip, and binding of the other changes the refractive index at the surface.

The target of one assay is Human CD163 (human, UniProt Q86VB7).
For the next assay, the target named is Mouse CD163 (mouse, UniProt Q2VLH6).
A further assay concerns the target T1, Mouse TNFR1 (mouse, UniProt P25118).
T1 sequence: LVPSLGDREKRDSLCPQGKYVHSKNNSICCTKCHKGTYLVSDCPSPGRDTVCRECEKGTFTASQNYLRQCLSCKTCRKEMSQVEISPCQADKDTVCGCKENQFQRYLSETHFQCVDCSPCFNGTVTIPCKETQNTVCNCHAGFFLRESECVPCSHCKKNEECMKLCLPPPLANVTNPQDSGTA

What is called Kd is the free concentration of one partner at which half of the binding sites on the other are occupied at equilibrium, for simple one-to-one binding. A higher Kd goes with a looser complex. In general, koff refers to a measure of how fast the partners let go of each other. A high value points to a short-lived complex. By kon is commonly meant the second-order rate constant of association. A higher kon goes with fast association.

Chain of Mouse CD163 (Q2VLH6 39-1045): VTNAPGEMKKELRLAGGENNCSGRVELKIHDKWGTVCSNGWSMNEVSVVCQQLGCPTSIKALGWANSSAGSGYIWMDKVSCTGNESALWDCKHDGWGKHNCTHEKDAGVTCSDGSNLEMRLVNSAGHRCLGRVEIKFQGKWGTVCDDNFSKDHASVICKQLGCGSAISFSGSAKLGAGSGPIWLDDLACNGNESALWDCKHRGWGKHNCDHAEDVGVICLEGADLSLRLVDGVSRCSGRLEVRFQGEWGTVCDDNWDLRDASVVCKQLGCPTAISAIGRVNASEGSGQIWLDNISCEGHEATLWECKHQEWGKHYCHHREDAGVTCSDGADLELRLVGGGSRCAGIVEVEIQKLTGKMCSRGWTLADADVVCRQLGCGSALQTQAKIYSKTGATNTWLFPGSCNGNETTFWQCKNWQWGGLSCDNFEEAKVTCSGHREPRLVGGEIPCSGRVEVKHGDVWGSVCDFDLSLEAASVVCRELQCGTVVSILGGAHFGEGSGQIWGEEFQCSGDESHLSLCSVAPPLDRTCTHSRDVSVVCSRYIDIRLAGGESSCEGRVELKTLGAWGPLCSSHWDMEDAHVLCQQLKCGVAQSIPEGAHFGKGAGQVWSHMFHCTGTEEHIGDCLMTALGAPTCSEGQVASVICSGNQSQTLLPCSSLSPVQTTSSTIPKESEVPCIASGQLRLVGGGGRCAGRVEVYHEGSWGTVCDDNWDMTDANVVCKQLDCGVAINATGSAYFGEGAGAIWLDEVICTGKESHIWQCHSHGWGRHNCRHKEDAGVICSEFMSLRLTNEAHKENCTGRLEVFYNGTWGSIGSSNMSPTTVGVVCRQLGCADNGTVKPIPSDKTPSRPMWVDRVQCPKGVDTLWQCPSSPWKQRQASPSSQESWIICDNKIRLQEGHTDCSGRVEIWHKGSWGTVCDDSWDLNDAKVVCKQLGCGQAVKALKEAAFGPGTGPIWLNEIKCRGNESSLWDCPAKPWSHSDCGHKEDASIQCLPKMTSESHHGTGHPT
Chain of Human CD163 (Q86VB7 42-1050): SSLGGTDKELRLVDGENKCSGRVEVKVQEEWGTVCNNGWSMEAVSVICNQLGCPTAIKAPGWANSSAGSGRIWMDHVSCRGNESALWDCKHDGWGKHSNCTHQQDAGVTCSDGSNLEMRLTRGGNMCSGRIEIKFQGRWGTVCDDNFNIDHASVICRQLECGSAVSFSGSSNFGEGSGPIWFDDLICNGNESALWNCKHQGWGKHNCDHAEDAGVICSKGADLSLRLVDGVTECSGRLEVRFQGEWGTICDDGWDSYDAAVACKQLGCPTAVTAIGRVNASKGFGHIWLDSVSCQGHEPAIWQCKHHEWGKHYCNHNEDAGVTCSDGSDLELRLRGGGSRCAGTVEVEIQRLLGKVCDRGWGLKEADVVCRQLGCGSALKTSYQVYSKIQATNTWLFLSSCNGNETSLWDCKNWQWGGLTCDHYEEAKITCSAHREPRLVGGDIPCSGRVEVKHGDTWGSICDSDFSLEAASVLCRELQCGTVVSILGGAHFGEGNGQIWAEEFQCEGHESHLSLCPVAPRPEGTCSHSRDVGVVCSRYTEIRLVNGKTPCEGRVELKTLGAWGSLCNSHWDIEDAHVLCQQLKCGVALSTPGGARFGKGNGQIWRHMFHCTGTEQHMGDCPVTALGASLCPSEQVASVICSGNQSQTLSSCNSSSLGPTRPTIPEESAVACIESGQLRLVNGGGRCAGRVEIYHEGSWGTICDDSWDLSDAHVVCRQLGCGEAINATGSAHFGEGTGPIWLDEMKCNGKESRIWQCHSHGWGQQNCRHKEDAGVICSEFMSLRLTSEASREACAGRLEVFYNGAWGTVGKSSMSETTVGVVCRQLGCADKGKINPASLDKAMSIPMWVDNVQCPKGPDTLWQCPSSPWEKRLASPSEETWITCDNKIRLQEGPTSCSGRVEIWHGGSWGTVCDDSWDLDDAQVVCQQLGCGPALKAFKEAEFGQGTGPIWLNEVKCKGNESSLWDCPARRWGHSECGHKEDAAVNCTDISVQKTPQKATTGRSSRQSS

B1: Mouse TNF (ligand)
chain: LRSSSQNSSDKPVAHVVANHQVEEQLEWLSQRANALLANGMDLKDNQLVVPADGLYLVYSQVLFKGQGCPDYVLLTHTVSRFAISYQEKVNLLSAVKSPCPKDTPEGAELKPWYEPIYLGGVFQLEKGDQLSAEVNLPKYLDFAESGQVYFGVIAL
Turning to B1, the Kd in the assay with Human CD163 is 1.93 nM; in the assay with Mouse CD163, 0.093 nM; in the assay with Mouse TNFR1 it was 69.6 nM. The results for the koff with Human CD163, with Mouse CD163 and with Mouse TNFR1 were 0.000151 s⁻¹, 0.000232 s⁻¹ and 0.000379 s⁻¹, respectively. In addition, the figures for the kon in the assay with Human CD163, with Mouse CD163 and in the assay with Mouse TNFR1 were 78500 M⁻¹ s⁻¹, 2.5e+06 M⁻¹ s⁻¹ and 5450 M⁻¹ s⁻¹, respectively.
